Assay results from patent publication US20250066499A1 (SUNSHINE GUOJIAN PHARMACEUTICAL SHANGHAI, published 2025).
Where a chain is given by its changes, count along the chain named.

How the values were obtained:
Test in all cases: ELISA; decline multiple of Top against CD73-ND
CD73-ND-his = molecular target: T1, CD73-ND-his (human, UniProt P21589 27-317)
T1 construct: Biotinylated and captured on streptavidin in the ELISA
T1 sequence: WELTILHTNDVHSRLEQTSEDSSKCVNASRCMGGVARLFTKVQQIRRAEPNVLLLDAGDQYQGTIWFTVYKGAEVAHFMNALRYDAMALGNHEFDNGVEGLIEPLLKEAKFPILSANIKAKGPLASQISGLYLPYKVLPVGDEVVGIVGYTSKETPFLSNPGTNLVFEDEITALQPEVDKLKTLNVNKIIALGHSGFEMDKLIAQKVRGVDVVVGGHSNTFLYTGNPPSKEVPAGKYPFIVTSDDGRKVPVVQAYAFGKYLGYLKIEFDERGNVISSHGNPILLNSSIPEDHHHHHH
Experimental: (§1) The ELISA plates were coated with SA protein diluted to 1.5 μg/mL in coating buffer (50 mM carbonate coating buffer, pH 9.6) and incubated overnight at 4° C. The supernatant was discarded, and the plates were washed three times with PBST. Then, 5% skimmed milk powder prepared with PBS was added for blocking and the plates were incubated for 2 h at 37° C. After washing the plates once with PBST, CD73-biotin protein (prepared by biotinylating CD73-His protein according to the EZ-Link NHS-Biotin Reagent instructions) was diluted to 0.5 μg/mL and added at 100 μL/well for incubation at room temperature for 1 h. The plates were washed three times with PBST, and the prepared murine-derived monoclonal antibodies against human CD73 were serially diluted with 1% BSA buffer prepared with PBST and added to the ELISA plates at 100 μl/well. The plates were incubated at 37° C. for 1 h. After washing the plates three times with PBST, HRP-labeled goat anti-mouse IgG secondary antibody was added and the plates were incubated for 30 min at 37° C. After washing the plates three times with PBST, the residual droplets were patted dry on absorbent paper as much as possible. Then, 100 μl of TMB color developing solution was added to each well, and the plates were incubated in the dark at room temperature for 5 min for color development. Subsequently, 50 μl of 2M H₂SO₄ stop solution was added to each well to terminate the substrate reaction. The OD values were read at 450 nm using a multimode microplate reader to analyze the binding ability of the tested antibodies to the target antigen human CD73-His.
(§2) Referring to the experimental method in Example 3, the affinity of 48A11-HuV33 for various mutant proteins of CD73-ND was determined. The SA protein was diluted to 1 μg/mL for coating the ELISA plates, and the biotinylated CD73 protein (CD73-biotin) was used at a concentration of 0.1 μg/mL.

CD73-ND-K136A = molecular target: T2, CD73-ND-K136A (human, UniProt P21589 27-317)
T2 construct: Alanine mutant of CD73-ND
T2 sequence: T1 sequence with K136A
Experimental: as §1, §2

CD73-ND-Y132A = molecular target: T3, CD73-ND-Y132A (human, UniProt P21589 27-317)
T3 construct: Alanine mutant of CD73-ND
T3 sequence: T1 sequence with Y132A
Experimental: as §1, §2

CD73-ND-L133A = molecular target: T4, CD73-ND-L133A (human, UniProt P21589 27-317)
T4 construct: Alanine mutant of CD73-ND
T4 sequence: T1 sequence with L133A
Experimental: as §1, §2

CD73-ND-P134A = molecular target: T5, CD73-ND-P134A (human, UniProt P21589 27-317)
T5 construct: Alanine mutant of CD73-ND
T5 sequence: T1 sequence with P134A
Experimental: as §1, §2

CD73-ND-L138A = molecular target: T6, CD73-ND-L138A (human, UniProt P21589 27-317)
T6 construct: Alanine mutant of CD73-ND
T6 sequence: T1 sequence with L138A
Experimental: as §1, §2

B1: 48A11-HuV33 (antibody, human IgG4, V domains shown)
VH: QVQLVQSGAEVKKPGASVKVSCKASGYTFTSYWMHWVRQAPGQGLEWIGEINPSIGRTNYNEKFKSRVTLTRDTSTSTAYMELSSLRSEDTAVYYCARRVYGTMDYWGQGTLVTVSS
VL: DIQMTQSPSSLSASVGDRVTITCKASQDINSYLSWFQQKPGKSPKLLIYRANIWVDGVPSRFSGSGSGQDYTFTISSLQPEDIATYYCLQYDELYTFGQGTKVEIK
notes: Humanized
Ratio(Top) (CD73-ND-his): 1 fold | Ratio(Top) (CD73-ND-K136A): 1 fold | Ratio(Top) (CD73-ND-Y132A): 8.2 fold | Ratio(Top) (CD73-ND-L133A): 2.3 fold | Ratio(Top) (CD73-ND-P134A): 1.1 fold | Ratio(Top) (CD73-ND-L138A): 1.1 fold
